Target: GST-LC3A
Experiment: GST-pulldown, in vitro-translated 35S-labelled protein, autoradiography quantification
Settings: Means ± SD of 3 independent experiments, read off a plot

Substance | response (parent: est. 2.6) | response (parent: est. 0.5) | response (parent: est. 1.7)
Myc-tagged ATG14, full-length, in vitro translated (from UniProt Q6ZNE5) F64A; F67A | 2.3 % binding |  | 
Myc-tagged ATG14, full-length, in vitro translated (from UniProt Q6ZNE5) F64A; F67A; W435A; L438A | 1 % binding |  | 
Myc-tagged ATG14, full-length, in vitro translated (from UniProt Q6ZNE5) W435A; L438A | 1.2 % binding |  | 
Myc-tagged BECN1, full-length, in vitro translated (from UniProt Q14457) F97A; I100A |  | 0.25 % binding | 
Myc-tagged BECN1, full-length, in vitro translated (from UniProt Q14457) F97A; I100A; S90E; S93E; S96E |  | 0.25 % binding | 
Myc-tagged BECN1, full-length, in vitro translated (from UniProt Q14457) S90E; S93E; S96E |  | 0.6 % binding | 
Myc-tagged PIK3C3, full-length, in vitro translated (from UniProt Q8NEB9) F198A; I201A |  |  | 1.8 % binding
Myc-tagged PIK3C3, full-length, in vitro translated (from UniProt Q8NEB9) F198A; I201A; F250A; V253A |  |  | 1 % binding
Myc-tagged PIK3C3, full-length, in vitro translated (from UniProt Q8NEB9) F250A; V253A |  |  | 1.2 % binding

— paper PMC6613885
